According to patent US11999794B2, “Human mesothelin chimeric antigen receptors and uses thereof” (Novartis AG, priority 2013, dated 2024):
Changes are numbered by the printed parent chain. “Also recorded” adds a separate entry of the source.

B1: M5: human anti-mesothelin scFv SEQ ID NO: 43; full CAR SEQ ID NO: 67 (protein)
scFv: QVQLVQSGAEVEKPGASVKVSCKASGYTFTDYYMHWVRQAPGQGLEWMGWINPNSGGTNYAQKFQGRVTMTRDTSISTAYMELSRLRSDDTAVYYCASGWDFDYWGQGTLVTVSSGGGGSGGGGSGGGGSGGGGSDIVMTQSPSSLSASVGDRVTITCRASQSIRYYLSWYQQKPGKAPKLLIYTASILQNGVPSRFSGSGSGTDFTLTISSLQPEDFATYYCLQTYTTPDFGPGTKVEIK
B2: M11: human anti-mesothelin scFv SEQ ID NO: 49; full CAR SEQ ID NO: 73 (protein)
scFv: B1 scFv with V5Q, E12K, D31G, K63N, S84R, V138R

Experiments:
[1] = molecular target: T1, biotinylated mesothelin ECD (Homo sapiens, UniProt Q13421); experiment: SPR relative epitope binning in comparison to SS1; format: binding; conditions: 50 nM SS1 captured first, then scFv at 100 nM
T1 construct: made in house; host or cells: HEK293F (transient)
T1 sequence (Q13421 with tags, fused parts or gaps): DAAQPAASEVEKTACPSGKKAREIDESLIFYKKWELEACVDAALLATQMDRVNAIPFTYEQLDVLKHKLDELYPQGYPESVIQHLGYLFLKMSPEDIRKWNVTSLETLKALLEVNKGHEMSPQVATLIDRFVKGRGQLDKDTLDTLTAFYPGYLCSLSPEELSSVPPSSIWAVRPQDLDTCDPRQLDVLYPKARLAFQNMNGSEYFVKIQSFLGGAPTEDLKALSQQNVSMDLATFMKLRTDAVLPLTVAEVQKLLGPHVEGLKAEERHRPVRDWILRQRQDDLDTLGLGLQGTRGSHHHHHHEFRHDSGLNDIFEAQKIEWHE
Procedure: In embodiments, the competition assay is an SPR-based assay. Briefly, the antigen, e.g., human mesothelin, is immobilized on a surface. Through a microflow system, a reference antibody is injected over the antigen layer. Upon binding of the reference antibody to the antigen, an increase in signal, typically expressed in response units (RU) is detected, e.g., reference signal. After a desired time, a test antibody is injected over the antigen layer. If the test antibody binds to a different region or epitope of the antigen, then an additional increase in signal is detected, e.g., a 5% or more, 10% or more, 15% or more, 20% or more, 25% or more, 30% or more, 35%, or more, 40% or more, 45% or more, 50% or more, 55% of more, 60% or more, 65% or more, 70% or more, 75% or more, 80% or more, 85% or more, 90% or more, or 95% or more increase in signal, e.g., RU, as compared to the highest signal detected upon binding of the reference antibody, e.g., the reference signal. If the test antibody binds to the same region or epitope of the antigen, then little or no increase in signal, e.g., RU, will be detected, e.g., less than 20%, less than 15%, less than 10%, less than 5%, less than 4%, less than 3%, less than 2%, or less than 1% increase in signal, e.g., RU, as compared to the highest signal detected upon binding of the reference antibody, e.g., the reference signal. When using this SPR-based competition assay, an antibody is said to compete with the reference antibody when less than 20%, less than 15%, less than 10%, less than 5%, less than 4%, less than 3%, less than 2%, or less than 1% increase in signal, e.g., RU, is detected when compared to the reference signal detected upon binding of the reference antibody to the antigen. An antibody is said to not compete, or compete poorly, with a reference antibody when a 5% or more, 10% or more, 15% or more, 20% or more, 25% or more, 30% or more, 35%, or more, 40% or more, 45% or more, 50% or more, 55% of more, 60% or more, 65% or more, 70% or more, 75% or more, 80% or more, 85% or more, 90% or more, or 95% or more increase in signal, e.g., RU, is detected when compared to the reference signal detected upon binding of the reference antibody to the antigen.
To determine the relative binding epitope of each of the scFvs in comparison to SS1, 50 nM SS1 was captured by biotinylated mesothelin ECD immobilized on a streptavidin sensor chip at a contact time of 180 seconds resulting in a relative density of 70 RU. Purified scFv at 100 nM (M5, M11, M12, M14, M16, M17, M21, or M23) was then immediately injected over the chip to minimize dissociation of the SS1/mesothelin complex. Binding of the secondary scFv was monitored for 270 seconds.

[2] = test system: Ovcar8; experiment: OVCAR8 subcutaneous xenograft, single and double dose (Example 17); format: in vivo, NSG mice; conditions: for tumor growth / anti-tumor activity, single dose: 4×10^6 CAR+ T cells on day 14; for tumor growth / anti-tumor activity, double dose: 4×10^6 CAR+ T cells on days 14 and 19; for delta T/C value: day 52, versus Isotype group, single dose; for regression value / Regression (%) / Delta T/C (%): day 52; for Regression (%): double dose (second identical dose 5 days later); for Delta T/C (%): single dose of 4×10^6 CAR T cells i.v. on day 14, versus the Isotype group
Procedure: Cell line: OVCAR8 is a human ovarian cancer cell line that was derived from a patient with ovarian adenocarcinoma, and has been transduced to express mCherry. Cells were grown in RMPI medium containing 10% fetal bovine serum. This cell line grows adherent in tissue culture flasks. This cell line forms tumors in mice when implanted subcutaneously in the flank and mixed with matrigel. The addition of matrigel to the cells during the implantation allow for a matrix to develop in the flank of the mouse that provides a structure for the tumor cells to start growing on. Over 10-12 days, the matrigel plug degrades and the solid tumor that remains is made up of tumor cells and surrounding stromal cells. The OVCAR8 cells have been modified to express mCherry, so that that tumor cell growth can also be monitored by imaging the mice.
Mice: 6 week old NSG (NOD.Cg-Prkdc^scidIl2rg^tm1Wjl/SzJ) mice were received from the Jackson Laboratory (stock number 005557). Animals were allowed to acclimate in the Novartis NIBRI animal facility for at least 3 days prior to experimentation. Animals were handled in accordance with Novartis ACUC regulations and guidelines. Electronic transponders for animal identification were implanted on the left flank one day prior to tumor implantation. Mice were shaved on the right flank prior to tumor implantation.
Tumor implantation: OVCAR8 cells in log phase were harvested after tyrpsinization with 0.25% trypsin-EDTA. The cells were washed in 50 ml falcon tubes at 1200 rpm for 5 minutes, once in growth media and then two times in cold sterile PBS. The cells were resuspended in PBS at a concentration of 100×10^6 per ml and kept on ice. The PBS solution containing the cells was then mixed 1:1 with matrigel, resulting in a final concentration of 50×10^6 cells per ml of PBS-matrigel. The cells were placed on ice and immediately implanted in mice. Tumors were implanted subcutaneously in 200 ul on the right flank.
The OVCAR8 model endogenously expresses mesothelin and thus, can be used to test the in vivo efficacy of mesothelin directed CAR T cells. This model grows well when implanted subcutaneously in the flank of mice and can be calipered for tumor volume measurements. Upon implantation of 10×10^6 tumor cells in a 50:50 mix of PBS and matrigel, the tumors establish and can be accurately measured in one week. Within 13-15 days, the mean tumor volume is 100-200 mm^3, with tumors reaching an endpoint volume (1000-1200 mm^3) by 60-65 days. Anti-tumor activities of therapeutic agents are often tested once tumors are fully engrafted and matrigel resorbed. Thus, there is a large window with this model during which the anti-tumor activity of the CAR T cells can be observed.
CAR T cell dosing: Mice were dosed with 4×10^6 CART cells (13.3×10^6 total T cells) 14 days after tumor implantation. Cells were partially thawed in a 37 degree Celsius water bath and then completely thawed by the addition of 1 ml of cold sterile PBS to the tube containing the cells. The thawed cells were transferred to a 15 ml falcon tube and adjusted to a final volume of 10 mls with PBS. The cells were washed twice at 1000 rpm for 10 minutes each time and then counted on a hemocytometer. T cells were then resuspended at a concentration of 133×10^6 cells per ml of cold PBS and kept on ice until the mice were dosed. The mice were injected intravenously via the tail vein with 100 ul of the T cells for a dose of 4×10^6 CAR T cells (13.3×10^6 total T cells) per mouse. Seven mice per group were either treated with 100 ul of PBS alone (PBS) or T cells transduced with an isotype CAR (Isotype). 14 mice per group were treated with either the SS1 mesothelin CAR T cells, M5 mesothelin CAR T cells, or M11 mesothelin CART cells. Five days later the SS1, M5, and M11 groups were split in half and seven mice in each group were treated with an identical second dose of the CAR T cells. […]

Molecule	relative epitope binning against SS1 on human mesothelin [1]	tumor growth / anti-tumor activity, single dose [2]	tumor growth / anti-tumor activity, double dose [2]	delta T/C value [2]	regression value ([2]; double dose)	mice with complete regression ([2]; double dose)	Regression (%) [2]	Delta T/C (%) [2]
B1	bind to a different epitope than SS1; also recorded: bind to a unique epitope	clear anti-tumor activity	regression as opposed to tumor growth inhibition	30.28%	−63.90%	four out of seven mice	−63.90%	30.28%
B2	bind to a different epitope than SS1; also recorded: bind to a unique epitope	clear anti-tumor activity	regression as opposed to tumor growth inhibition	52.91%	−15.80%		−15.80%	52.91%
